Laboratory results: the DeepSol protein solubility set

Assay: soluble on expression in E. coli; label from the status in PepcDB or PDB records

| Sequence | soluble on expression in E. coli |
| --- | --- |
| MSLTELPKEFLEDIEEILKDEYDDFIKSYEESKTTGLRINTLKIDKKKLFDLELFDLNQIPWAEEGFYYDDKIDRPGRNPLHEAGAYYLQEPSAMSVIPKADIKEGEKVLDMCAAPGGKSTYILSKLNDTGLLVSNEINASRIKALGENLERFGARNCIITNTDSNSLRKTFNGYFDKVIIDAPCSGQGMFRKDEVAISDWSYAKVVECQSIQKEIIRDGYKMLKKDGILIYSTCTFSREENEHVINEFISEYPHAELIEMERLWPHKIKGEGHFVAKIKKLEEEECNVKELKIKNLDKEIKDYREFEKKFLKVDFYSNKKNKFYLRGENLYLLPEIYPDTKKLKVLRYGLHLGVLKKNRFEPSHALSHYLKVEDVKNVENFSVQSESILKYLKGDVVNSNDSRGWVLVSVEGIPLGWGKESSGVIKNHYPKGLRKVEGHHHHHH | soluble |
| QMPQPLAYAQALLAQFASLARAVNGAQLLGDFVRSLAELSGCELSQLYLLDATHKCLKMRAECLDGTLQPREAASLPVDYNGEQLLQFALCQNRVVCLGELSGSLHETSFLPTQSTPWQSLLCVPVVNHQQAVEGLLLCASRRHVDLQGFADSLGQFGSFALGQLNLLQRLHKPADEVRPAGITMPSVSGYG | not soluble |
| MLRRQARERREYLYRKAQELQDSQLQQKRQIIKQALAQGKPLPKELAEDESLQKDFRYDQSLKESEEADDLQVDDEYAATSGIMDPRIIVTTSRDPSTRLSQFAKEIKLLFPNAVRLNRGNYVMPNLVDACKKSGTTDLVVLHEHRGVPTSLTISHFPHGPTAQFSLHNVVMRHDIINAGNQSEVNPHLIFDNFTTALGKRVVCILKHLFNAGPKKDSERVITFANRGDFISVRQHVYVRTREGVEIAEVGPRFEMRLFELRLGTLENKDADVEWQLRRFIRTANKKDYL | soluble |
| MKVAVLDFGKTNSKLFVFGQDGGILDERRTQPKWTHQDGFSVLDEAALHDWALGAVTEAVENHGVEGVMVSGHGCTFALVDDAALTHPILDYEQEPPAEIAARIDHRIPDFAETFSPRLPLGFNYGRHMLWVQEVDPDAFAAAKSILGYPQYWSWRLGGRPVSEVSYLGCHSHLWAPRSQDFSSLVDAEGWRGQMPAFARAGAVIGERRLGSSSRPIAIHNGVHDSNAALHAYRRQELGPLTVVSTGTWVVVLNPGCPLDVLDRDRDMLVNVDVDGGPVPTIRFMGGREFAAISAGWQGAIPPGAVQQAIDAGIMALPSFAPGGPMPDRPGRLVGRTPYAAERAAAALLYVALMVDLCLDLIQSQDTVIVDGGLNAGGLLAGLLAELRPGQAFLQGATLEGSATGAAALAFESVGRDFVAEAPEPVHAARFAGLAGYRDAWRDRVGGQGTAIKAAGGARLEHHHHHH | not soluble |
| MKIQLDINGTEIQKGVWVGSGAIIEPGAILNPPCVIGDNCRIESGAVIDSLSVIGNNNVIERDSSVKRSVIWDGNYIEYGSKIRGAILCSKTNLKRYVHIFENAIVGDNCLINERVVIKPNIKIWPQKTVEPFAIVDRNIIWGSKLEHHHHHH | not soluble |
| MKIVVIGATGIIGKAIVAELNPRHEIISASYKNSDIQVDITSKQSIDAMYKKLNTIDAIVLATGKVHFAALKDMGEDDYKIGLTNKLMGQVNVVLAGLEYINDNGSFTLTSGILNRDPILYGSSAAMVNGALDGFIKSAALEMPRGIRINGVSPTVITEAMENYGPYFRGYEPVSAARAALAYSKSIEGAQTGQVYCVGLEHHHHHH | not soluble |
| MDRDELVRYLDAYLRIQDFPQDPSLNGLQVEGKRTVRKVGAAVDAGEAIFRKALEEEVDFLIVHHGLFWGKPFPIVGHHKRRLETLFQGGINLYAAHLPLDAHEEVGNNFVLARELGLVDLTPWDVGVKGRFPQPTPLLQVADRLGQLTGMQPLVHQGGLDHVETVILVSGSGTGLLPKVDADLFVTGEPKHSVFHETFERGLNVIYAGHYDTETFGVKALAAHLEARFGLPWVFLDHPTGL | soluble |
| PALVLEGDMTAPTLVIGWGSTFGSLKSAVQQCLEQGLPVAYLHLRHLNPLPDDLGSLLKKYDKVLVAELNSGQLCQLIRAVYLVDAQSISQCNGQPFSVNPLVSAIKAEANYEQQL | not soluble |
| MHHHHHHSSGLVPRGSGMKETAAAKFERQHMDSPDLGTDDDDKAMGCQKAVSPAAETAAVSPSVDAARLEPRVEERDGFWVLKEEFRSGINPAEKVKIEKDPMKLFIEDGISDLATLSMEEVDKSKHNKDDIDVRLKWLGLFHRRKHHYGRFMMRLKLPNGVTTSEQTRYLASVIKKYGKDGCADVTTRQNWQIRGVVLPDVPEIIKGLESVGLTSLQSGMDNVRNPVGNPLAGIDPHEIVDTRPFTNLISQFVTANSRGNLSITNLPRKWNPCVIGSHDLYEHPHINDLAYMPATKNGKFGFNLLVGGFFSIKRCEEAIPLDAWVSAEDVVPVCKAMLEAFRDLGFRGNRQKCRMMWLIDELGMEAFRGEVEKRMPEQVLERASSEELVQKDWERREYLGVHPQKQQGLSFVGLHIPVGRLQADEMEELARIADVYGSGELRLTVEQNIIIPNVENSKIDSLLNEPLLKERYSPEPPILMKGLVACTGSQFCGQAIIETKARALKVTEEVQRLVSVTRPVRMHWTGCPNSCGQVQVADIGFMGCMTRDENGKPCEGADVFVGGRIGSDSHLGDIYKKAVPCKDLVPVVAEILINQFGAVPREREEAE | soluble |
| AFTGKYEIESEKNYDEFMKRLALPSDAIDKARNLKIISEVKQDGQNFTWSQQYPGGHSITNTFTIGKECDIETIGGKKFKATVQMEGGKVVVNSPNYHHTAEIVDGKLVEVSTVGGVSYERVSKKLA | soluble |
| MGSDKIHHHHHHMDIKVITRHAPSNYGSLLQSIATITTLERLGHKCEIIDYIRDDEHGLSAVKTNLNNKQRWSGNSLKKLAYIVLRYPEEKKAELNFREMRRKYLKLTQLCRTHDDLKRLDADIFMTGSDQVWGPTLNGHYDEAYFLSFVKDKRKIAYAASLGRTDFTAKILSEYKKLLSSYSGIAVRENTAVGLLRQMDIECAGQVLDPTLLLTGDEWSRMIKKDMGGKYVLVYQLHNNPALSKYAVRFAEHVGLPLYRVSPTFHQIRRGGKFIYLPDLPDFLSYIKNSTYFITDSFHGTAFALNFNRQFIEILPNNKTGNRNQSILQLTRLQDRIVTDYADCSISERMIDYERVNDILRKERIRSLGILKQLLRQ | not soluble |
| MAHHHHHHMDNSIKIKSAFLKENVGVKITGPCDEGFGLVMVPHIIINVDTRNTDIQLGKKSSEINYGIKLRKKGKDEYEEKVGIDLLKNVCETGKNFKFVAYIKGDELIIKWKVIEEGNIPIDIKKFKIKRMSPPITSIQVFSSMSDEKSFVLENKNYVVTNNMPEKCEALATNCFLSGNIDIEKCYQCSLLVENDSKSDVCYNFISRENKEKLNEERFKVKGSTEYEESVESELKGAIDLLISSFYKSDGENGENVLISFEDLNSTLEDDIINFCSLLKLVDLSGTFMNHQIGTTADAFNNIVKLLKEHKEEDEFVLRTKLRNPALCMKNVDDWVKSRCGLLTSDDSYVVIKKNSDTNGKNENNESNDEEYDGVIDLSTNENGNVKSIQFNDDIYCNDDYCNRWKNENNCISKIGVEDQGNCASSWAFASKLHFETLRCMKGYDHLGISALYLTNCSKGKISKRCTEGGNPSEFLEIVSNSGFLPTEFDYPYFYALVENSCPSGLNKWINLWEDVKLFDYKYEPNSIGSKGYSVYKSEMFKDNMDEYVKMIKSEIKNKGSVIAYINAQSVLTYDFNGKNILNMCGSKTTDHSINVIGYGHYKNKEGEEKSYWLVRNSWGYYWGDEGNFKVDMYGPSNCNYHFINTVLVFNIDIPMMNNNENNKKGLYNYFPKYTHEFYHNFYDQNFGSDNKISLINSNGSNKNDVNNAYTVHGQSGETEVQPSQLRSTANQDSNRGAVTSDPLRTQPETTSTSVKKMDVFQVLKHVKNSKIKVGLIKYDNDDEIGAHHSCTRAYSFDPEKYDECVEFCRKNWEQCKDKPSPGFCLTKLDESKGCFFCYV | not soluble |
| FQDVTNTPVEGMKPYTALQLEGRDIYIREGCVGCHSQMIRPFRAETERYGHYSVAGESVWDHPFLWGSKRTGPDLARVGSRYSDDWHRAHLFNPRNVVPESKMPAYPWLVENKLDGKDIEKKLEVMRTLGVPYTDEDIKGAKDSLKGKTEMDAVVAYLQVLGTSIK | not soluble |
| MSLACGEFSLIARYFDRVRSSRLDVELGIGDDCALLNIPEKQTLAISTDTLVAGNHFLPDIDPADLAYKALAVNLSDLAAMGADPAWLTLALTLPDVDEAWLESFSDSLFDLLNYYDMQLIGGDTTRGPLSMTLGIHGFVPMGRALTRSGAKPGDWIYVTGTPGDSAAGLAILQNRLQVADAKDADYLIKRHLRPSPRILQGQALRDLANSAIDLSDGLISDLGHIVKASDCGARIDLALLPFSDALSRHVEPEQALRWALSGGEDYELCFTVPELNRGALDVALGHLGVPFTCIGQMTADIEGLCFIRDGEPVTLDWKGYDHFATPEGGSHHHHHH | soluble |
| GEAQERQTDDGIAAFCRHLGELCDLLNAPYDDVNALAHLARAGELQGTNVNLLLHNAFYHWLGERVQLSVAESRDVAPETIAAHAREAALAQIQSGEYVSQFVTAVAAHATQNVDGVQGPVAPTKQSLFDLPGHFELLGPDEVDGLLKDLASSDCPVGALEKLVADPHLLEDLCFGPTWPQLCDSLGRLVCLLPPSGGTQAAVTGAGHHQHGHTRAAAAVGGGAGRAAASVPEMPKQQQLLLQALNEVVSAVAASSPPHAAELLDGLAPYLTALALRLSLPLPGAGTGHATPVAPDQLQTRVQAGMAGPGAGAGDGGPGGVAVVGTGAVGLLVAVTARDA | not soluble |
| MGNTAMWMSCNPTIPILFGIQVKIFPLNQIFNHIHPARYAVTFENNVDSKLRRHWVAGATIRIIDRQTDEVIAKKTIYVFEKGLDGTGGARMPWKFAILCNKERLTSSEPLSDFVLSVLKPYILRPLYIASLRRDD | not soluble |
| MGSDKIHHHHHHMNRPLFDLDLLRALVMVADCGSFTTASARLHSTQSTVSQKVRRLEEIAGHRLLDRGTRDVRPTDAGVTVLSYARRMIALNDEMLEALSGATVALTIRLGVPDDFAAGRTTHALAAFKRDHPQVKLEVTCGLSRDICAAYDRGELDLVLIKQRRDSREAVVRWPEKLRWIDSARHPTIELDPVPLVVFPPRGLYRDDMIKAIEERGRRWRISFTTSSLSGIQAAVADGLGISVLPARAVTDDHVVLTDEHGGFAPIGNMDIAILHRPTADPMVSELTKALAAMLEHEPE | not soluble |
| MGHHHHHHSHMQSCESSGDSADDPLSRGLRRRGQPRVVVIGAGLAGLAAAKALLEQGFTDVTVLEASSHIGGRVQSVKLGHATFELGATWIHGSHGNPIYHLAEANGLLEETTDGERSVGRISLYSKNGVACYLTNHGRRIPKDVVEEFSDLYNEVYNLTQEFFRHDKPVNAESQNSVGVFTREEVRNRIRNDPDDPEATKRLKLAMIQQYLKVESCESSSHSMDEVSLSAFGEWTEIPGAHHIIPSGFMRVVELLAEGIPAHVIQLGKPVRCIHWDQASARPRGPEIEPRGEGDHNHDTGEGGQGGEEPRGGRWDEDEQWSVVVECEDCELIPADHVIVTVSLGVLKRQYTSFFRPGLPTEKVAAIHRLGIGTTDKIFLEFEEPFWGPECNSLQFVWEDEAESHTLTYPPELWYRKICGFDVLYPPERYGHVLSGWICGEEALVMEKCDDEAVAEICTEMLRQFTGNPNIPKPRRILRSAWGSNPYFRGSYSYTQVGSSGADVEKLAKPLPYTESSKTAPMQVLFSGEATHRKYYSTTHGALLSGQREAARLIEMYRDLFQQGT | soluble |
